Laboratory results from US20160039904A1, “STABILIZED SINGLE HUMAN CD4 DOMAINS AND FUSION PROTEINS” (priority 2013, published 2016).

What was measured:
Assay in all cases: cell-based or functional assay
[1] = biological target: HIV-1 Env of isolate CNE68 (HIV-1)
[2] = biological target: HIV-1 Env of isolate CNE58 (HIV-1)
[3] = biological target: HIV-1 Env of isolate CNE55 (HIV-1)
[4] = biological target: HIV-1 Env of isolate CH114 (HIV-1)
[5] = biological target: HIV-1 Env of isolate CNE5 (HIV-1)
[6] = biological target: HIV-1 Env of isolate CNE16 (HIV-1)
[7] = biological target: HIV-1 Env of isolate GX2010.36 (HIV-1)
[8] = biological target: HIV-1 Env of isolate CH117 (HIV-1)
[9] = biological target: HIV-1 Env of isolate CH70 (HIV-1)
[10] = biological target: HIV-1 Env of isolate CH64 (HIV-1)
[11] = biological target: HIV-1 Env of isolate CH110 (HIV-1)
[12] = biological target: HIV-1 Env of isolate CNE53 (HIV-1)
[13] = biological target: HIV-1 Env of isolate CH120 (HIV-1)
[14] = biological target: HIV-1 Env of isolate CNE64 (HIV-1)
[15] = biological target: HIV-1 Env of isolate CNE30 (HIV-1)
[16] = biological target: HIV-1 Env of isolate CNE20 (HIV-1)
[17] = biological target: HIV-1 Env of isolate AE20 (HIV-1)
[18] = biological target: HIV-1 Env of isolate CNE66 (HIV-1)
[19] = biological target: HIV-1 Env of isolate CNE59 (HIV-1)
[20] = biological target: HIV-1 Env of isolate CNE6 (HIV-1)
[21] = biological target: HIV-1 Env of isolate CNE57 (HIV-1)
[22] = biological target: HIV-1 Env of isolate CNE40 (HIV-1)
[23] = biological target: HIV-1 Env of isolate CNE11 (HIV-1)
[24] = biological target: HIV-1 Env of isolate CNE7 (HIV-1)
[25] = biological target: HIV-1 Env of isolate CNE23 (HIV-1)
[26] = biological target: HIV-1 Env of isolate CH119 (HIV-1)
[27] = biological target: HIV-1 Env of isolate CNE9 (HIV-1)
[28] = biological target: HIV-1 Env of isolate YN192.31 (HIV-1)
[29] = biological target: HIV-1 Env of isolate CNE17 (HIV-1)
[30] = biological target: HIV-1 Env of isolate CNE3 (HIV-1)
[31] = biological target: HIV-1 Env of isolate CNE65 (HIV-1)
[32] = biological target: HIV-1 Env of isolate CH91 (HIV-1)
[33] = biological target: HIV-1 Env of isolate CNE1 (HIV-1)
[34] = biological target: HIV-1 Env of isolate CNE4 (HIV-1)
[35] = biological target: HIV-1 Env of isolate CNE107 (HIV-1)
[36] = biological target: HIV-1 Env of isolate CNE49 (HIV-1)
[37] = biological target: HIV-1 Env of isolate CNE14 (HIV-1)
[38] = biological target: HIV-1 Env of isolate AE03 (HIV-1)
[39] = biological target: HIV-1 Env of isolate CNE15 (HIV-1)
[40] = biological target: HIV-1 Env of isolate CNE46 (HIV-1)
[41] = biological target: HIV-1 Env of isolate CNE47 (HIV-1)

## 4Dm2m (Fc fusion)
[1]
  neutralization IC50: 0.11 nM
  neutralization IC90: 0.78 nM
[2]
  neutralization IC50: 2.1 nM
  neutralization IC90: > 28 nM
[3]
  neutralization IC50: 0.45 nM
  neutralization IC90: 10 nM
[4]
  neutralization IC50: 0.11 nM
  neutralization IC90: 4 nM
[5]
  neutralization IC50: 0.67 nM
  neutralization IC90: 8.7 nM
[6]
  neutralization IC50: 0.08 nM
  neutralization IC90: 1.2 nM
[7]
  neutralization IC50: 0.11 nM
  neutralization IC90: 18 nM
[8]
  neutralization IC50: 0.33 nM
  neutralization IC90: 15 nM
[9]
  neutralization IC50: 0.11 nM
  neutralization IC90: 1.2 nM
[10]
  neutralization IC50: 0.17 nM
  neutralization IC90: 1.6 nM
[11]
  neutralization IC50: 0.11 nM
  neutralization IC90: 0.83 nM
[12]
  neutralization IC50: 0.24 nM
  neutralization IC90: 5.5 nM
[13]
  neutralization IC50: 0.33 nM
  neutralization IC90: 6.6 nM
[14]
  neutralization IC50: 0.56 nM
  neutralization IC90: 3.2 nM
[15]
  neutralization IC50: 0.07 nM
  neutralization IC90: 0.44 nM
[16]
  neutralization IC50: 0.05 nM
  neutralization IC90: 5.3 nM
[17]
  neutralization IC50: 0.72 nM
  neutralization IC90: 5.8 nM
[18]
  neutralization IC50: 0.17 nM
  neutralization IC90: 7.7 nM
[19]
  neutralization IC50: 0.17 nM
  neutralization IC90: 2.7 nM
[20]
  neutralization IC50: 0.33 nM
  neutralization IC90: 2.3 nM
[21]
  neutralization IC50: 1.2 nM
  neutralization IC90: 19 nM
[22]
  neutralization IC50: 0.01 nM
  neutralization IC90: 0.11 nM
[23]
  neutralization IC50: 0.33 nM
  neutralization IC90: 2.6 nM
[24]
  neutralization IC50: 0.18 nM
  neutralization IC90: 1.8 nM
[25]
  neutralization IC50: 0.49 nM
  neutralization IC90: 4.9 nM
[26]
  neutralization IC50: 0.17 nM
  neutralization IC90: 3.4 nM
[27]
  neutralization IC50: 0.22 nM
  neutralization IC90: 3.2 nM
[28]
  neutralization IC50: 0.89 nM
  neutralization IC90: 21 nM
[29]
  neutralization IC50: 0.11 nM
  neutralization IC90: 2.4 nM
[30]
  neutralization IC50: 0.39 nM
  neutralization IC90: 2.8 nM
[31]
  neutralization IC50: 0.28 nM
  neutralization IC90: 3.3 nM
[32]
  neutralization IC50: 0.39 nM
  neutralization IC90: 10 nM
[33]
  neutralization IC50: 0.11 nM
  neutralization IC90: 0.61 nM
[34]
  neutralization IC50: 0.11 nM
  neutralization IC90: 2.4 nM
[35]
  neutralization IC50: 0.52 nM
  neutralization IC90: 18 nM
[36]
  neutralization IC50: 0.05 nM
  neutralization IC90: 0.56 nM
[37]
  neutralization IC50: 0.17 nM
  neutralization IC90: 2.4 nM
[38]
  neutralization IC50: 0.67 nM
  neutralization IC90: 12 nM
[39]
  neutralization IC50: 0.29 nM
  neutralization IC90: 2.6 nM
[40]
  neutralization IC50: 0.27 nM
  neutralization IC90: 9.4 nM
[41]
  neutralization IC50: 0.11 nM
  neutralization IC90: 2.8 nM

## C34 (peptide)
[1]
  neutralization IC50: 2.2 nM
  neutralization IC90: 12 nM
[2]
  neutralization IC50: 2 nM
  neutralization IC90: 13 nM
[3]
  neutralization IC50: 7.9 nM
  neutralization IC90: 103 nM
[4]
  neutralization IC50: 5.4 nM
  neutralization IC90: 25 nM
[5]
  neutralization IC50: 5.9 nM
  neutralization IC90: 63 nM
[6]
  neutralization IC50: 11 nM
  neutralization IC90: 51 nM
[7]
  neutralization IC50: 15 nM
  neutralization IC90: 165 nM
[8]
  neutralization IC50: 0.6 nM
  neutralization IC90: 3.2 nM
[9]
  neutralization IC50: 7.6 nM
  neutralization IC90: 84 nM
[10]
  neutralization IC50: 1.2 nM
  neutralization IC90: 6.7 nM
[11]
  neutralization IC50: 0.78 nM
  neutralization IC90: 6.3 nM
[12]
  neutralization IC50: 2 nM
  neutralization IC90: 23 nM
[13]
  neutralization IC50: 4.6 nM
  neutralization IC90: 39 nM
[14]
  neutralization IC50: 5.1 nM
  neutralization IC90: 21 nM
[15]
  neutralization IC50: 14 nM
  neutralization IC90: 110 nM
[16]
  neutralization IC50: 3.3 nM
  neutralization IC90: 14 nM
[17]
  neutralization IC50: 7.4 nM
  neutralization IC90: 69 nM
[18]
  neutralization IC50: 2.1 nM
  neutralization IC90: 11 nM
[19]
  neutralization IC50: 3.4 nM
  neutralization IC90: 28 nM
[20]
  neutralization IC50: 1.6 nM
  neutralization IC90: 15 nM
[21]
  neutralization IC50: 2 nM
  neutralization IC90: 14 nM
[22]
  neutralization IC50: 0.77 nM
  neutralization IC90: 7.8 nM
[23]
  neutralization IC50: 4.6 nM
  neutralization IC90: 42 nM
[24]
  neutralization IC50: 6.4 nM
  neutralization IC90: 22 nM
[25]
  neutralization IC50: 2.1 nM
  neutralization IC90: 18 nM
[26]
  neutralization IC50: 3.3 nM
  neutralization IC90: 20 nM
[27]
  neutralization IC50: 0.87 nM
  neutralization IC90: 5.8 nM
[28]
  neutralization IC50: 27 nM
  neutralization IC90: 225 nM
[29]
  neutralization IC50: 3.2 nM
  neutralization IC90: 82 nM
[30]
  neutralization IC50: 7.1 nM
  neutralization IC90: 71 nM
[31]
  neutralization IC50: 3.1 nM
  neutralization IC90: 16 nM
[32]
  neutralization IC50: 2.3 nM
  neutralization IC90: 12 nM
[33]
  neutralization IC50: 0.73 nM
  neutralization IC90: 6.8 nM
[34]
  neutralization IC50: 6.3 nM
  neutralization IC90: 23 nM
[35]
  neutralization IC50: 2.8 nM
  neutralization IC90: 32 nM
[36]
  neutralization IC50: 2.3 nM
  neutralization IC90: 12 nM
[37]
  neutralization IC50: 3.9 nM
  neutralization IC90: 17 nM
[38]
  neutralization IC50: 24 nM
  neutralization IC90: 85 nM
[39]
  neutralization IC50: 3.8 nM
  neutralization IC90: 22 nM
[40]
  neutralization IC50: 6.4 nM
  neutralization IC90: 115 nM
[41]
  neutralization IC50: 1.9 nM
  neutralization IC90: 14 nM
